Test results published in article PMC3553976.

Legend:
U2AF65 RRM123 = U2AF65 RRM123 (Homo sapiens, UniProt P26368 147-475); assay: EMSA
U2AF65 RRM123;SF1 1-260 [1] = target: T1, U2AF65 RRM123;SF1 1-260 (Homo sapiens;Homo sapiens, UniProt P26368;Q15637 147-475;1-260, |); assay: EMSA
[2] = target: U2AF65 RRM123;SF1 2-320 delta-linker (Homo sapiens;Homo sapiens?, UniProt P26368;Q15637 147-475;2-320, |del75-90); assay: EMSA
U2AF65 RRM123;SF1 2-320 = U2AF65 RRM123;SF1 2-320 (Homo sapiens;Homo sapiens?, UniProt P26368;Q15637 147-475;2-320, |); assay: EMSA
[3] = target: U2AF65 RRM123;SF1 2-320 delta-alpha1 (Homo sapiens;Homo sapiens?, UniProt P26368;Q15637 147-475;2-320, |del35-68); assay: EMSA
U2AF65 RRM123;SF1 1-260 [4] = target: T1, U2AF65 RRM123;SF1 1-260; assay: SAXS

Measured: binding result

Chain of U2AF65 RRM123 (P26368 147-475, one chain of several): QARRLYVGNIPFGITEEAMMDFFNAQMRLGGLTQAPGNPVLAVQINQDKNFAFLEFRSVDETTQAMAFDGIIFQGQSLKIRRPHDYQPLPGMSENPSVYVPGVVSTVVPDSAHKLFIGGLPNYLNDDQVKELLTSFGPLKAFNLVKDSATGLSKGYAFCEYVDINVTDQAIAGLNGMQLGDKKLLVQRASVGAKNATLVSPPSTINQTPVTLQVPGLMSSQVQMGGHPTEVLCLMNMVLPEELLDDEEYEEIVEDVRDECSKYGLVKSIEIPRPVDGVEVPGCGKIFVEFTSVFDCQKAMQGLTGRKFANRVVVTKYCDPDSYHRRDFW

B1: 3'-splice site RNA (AdML intron 1, consensus BPS) (ssRNA)
RNA: GGUCAUACUAACCCUGUCCCUUUUUUUUCCACAGC
not listed: U2AF65 RRM123;SF1 1-260 [4]
binds: all other assays above

B2: 20-mer BPS-Py tract RNA (ssRNA)
RNA: UAUACUAACAAUUUUUUUUU
binds: U2AF65 RRM123;SF1 1-260 [4]
